As a reminder, the % inhibition is the share of the control response that was lost under treatment. A higher % inhibition goes with a strong effect.

Bridges are numbered along the chain shown (N, C = ends). [ ]: non-standard residue; d: D form. Pro(5R-Ph) = O=C(O)[C@@H]1CC[C@H](c2ccccc2)N1

Holding throughout (experiment): cell-based or functional assay
Assay [1] deals with T1, CathepsinG, from human neutrophils (human, UniProt P08311 21-244).
T1 sequence (looked up): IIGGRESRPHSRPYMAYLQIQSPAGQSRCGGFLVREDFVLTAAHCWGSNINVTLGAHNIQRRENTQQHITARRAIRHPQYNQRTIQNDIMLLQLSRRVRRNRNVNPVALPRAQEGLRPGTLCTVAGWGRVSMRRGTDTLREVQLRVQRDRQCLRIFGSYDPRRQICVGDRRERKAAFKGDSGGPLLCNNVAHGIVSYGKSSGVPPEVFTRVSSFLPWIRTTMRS

Assay [2] concerns the target T2, Elastase from human neutrophils (human, UniProt P08246 30-247, limits assumed).
T2 sequence (looked up): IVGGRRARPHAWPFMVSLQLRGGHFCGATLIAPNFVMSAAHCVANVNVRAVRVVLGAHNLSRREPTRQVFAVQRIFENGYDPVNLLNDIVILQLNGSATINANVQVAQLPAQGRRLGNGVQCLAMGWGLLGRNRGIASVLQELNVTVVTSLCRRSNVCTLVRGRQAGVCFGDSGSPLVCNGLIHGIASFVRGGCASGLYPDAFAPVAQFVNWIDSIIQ

The target of assay [3] is Trypsin, Iodination grade, from human pancreas (human, UniProt P07477 24-247).
For assay [4], the target named is Chymotrypsin, from human pancreas (human, UniProt P17538 19-263).
Chain of Chymotrypsin, from human pancreas (P17538 19-263): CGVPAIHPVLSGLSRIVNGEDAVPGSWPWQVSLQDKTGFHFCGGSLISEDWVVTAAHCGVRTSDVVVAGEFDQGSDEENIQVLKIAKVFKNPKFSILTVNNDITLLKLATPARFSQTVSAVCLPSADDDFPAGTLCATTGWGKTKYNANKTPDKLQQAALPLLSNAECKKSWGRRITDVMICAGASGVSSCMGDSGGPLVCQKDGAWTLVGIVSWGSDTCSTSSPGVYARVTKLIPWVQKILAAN
Another assay deals with T3, Chymase, from human skin (human, UniProt P23946 22-247).
T3 sequence (looked up): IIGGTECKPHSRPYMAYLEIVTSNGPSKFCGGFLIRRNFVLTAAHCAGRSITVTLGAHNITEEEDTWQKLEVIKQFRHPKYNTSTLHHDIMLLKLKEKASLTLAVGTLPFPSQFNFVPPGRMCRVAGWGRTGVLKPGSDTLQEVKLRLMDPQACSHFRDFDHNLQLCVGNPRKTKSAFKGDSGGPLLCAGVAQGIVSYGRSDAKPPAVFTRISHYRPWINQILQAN

Assay [5] has as its target Urokinase from human urine (human, UniProt P00749 21-431, limits assumed).

B1: Example 21 (peptide)
peptide: FCTKSEPPICS
HELM: PEPTIDE1{F.C.T.K.S.E.P.P.I.C.S.[dP].P}$PEPTIDE1,PEPTIDE1,2:R3-10:R3|PEPTIDE1,PEPTIDE1,1:R1-13:R2$$$V2.0
SMILES: CC[C@H](C)[C@@H]1NC(=O)[C@@H]2CCCN2C(=O)[C@@H]2CCCN2C(=O)[C@H](CCC(=O)O)NC(=O)[C@H](CO)NC(=O)[C@H](CCCCN)NC(=O)[C@H]([C@@H](C)O)NC(=O)[C@@H]2CSSC[C@H](NC1=O)C(=O)N[C@@H](CO)C(=O)N1CCC[C@@H]1C(=O)N1CCC[C@H]1C(=O)N[C@@H](Cc1ccccc1)C(=O)N2
For the molecule B1, the IC50 in assay [1] is 97 nmol; in assay [2] it was 16.4 nmol. Moreover, the “% inhibition at 100 µM” value in assay [3] amounted to 95.6%; in assay [4], 2.6%; with Chymase, from human skin it was 5%.

B2: Example 15 (peptide)
peptide: FCTKSDPPXCS
HELM: PEPTIDE1{F.C.T.K.S.D.P.P.[Nle].C.S.[dP].P}$PEPTIDE1,PEPTIDE1,2:R3-10:R3|PEPTIDE1,PEPTIDE1,1:R1-13:R2$$$V2.0
SMILES: CCCC[C@@H]1NC(=O)[C@@H]2CCCN2C(=O)[C@@H]2CCCN2C(=O)[C@H](CC(=O)O)NC(=O)[C@H](CO)NC(=O)[C@H](CCCCN)NC(=O)[C@H]([C@@H](C)O)NC(=O)[C@@H]2CSSC[C@H](NC1=O)C(=O)N[C@@H](CO)C(=O)N1CCC[C@@H]1C(=O)N1CCC[C@H]1C(=O)N[C@@H](Cc1ccccc1)C(=O)N2
As to B2, the values for the IC50 in assay [1] and in assay [2] were 56 nmol and above 100000 nmol, respectively. In addition, the “% inhibition at 100 µM” value turned out to be 95% in assay [3] and 12.7% with Chymase, from human skin.

B3: Example 54 (peptide)
peptide: FCTKSDPPXCS
HELM: PEPTIDE1{F.C.T.K.S.D.P.P.[Cha].C.S.[dP].P}$PEPTIDE1,PEPTIDE1,2:R3-10:R3|PEPTIDE1,PEPTIDE1,1:R1-13:R2$$$V2.0
SMILES: C[C@@H](O)[C@@H]1NC(=O)[C@@H]2CSSC[C@H](NC(=O)[C@H](CC3CCCCC3)NC(=O)[C@@H]3CCCN3C(=O)[C@@H]3CCCN3C(=O)[C@H](CC(=O)O)NC(=O)[C@H](CO)NC(=O)[C@H](CCCCN)NC1=O)C(=O)N[C@@H](CO)C(=O)N1CCC[C@@H]1C(=O)N1CCC[C@H]1C(=O)N[C@@H](Cc1ccccc1)C(=O)N2
Take B3: the IC50 in assay [1] was 66 nmol; in assay [2], above 100000 nmol. Besides, the “% inhibition at 100 µM” value in assay [3] is 90%; in the assay with Chymase, from human skin, 12.9%; in assay [5] it was 3.2%.

B4: Example 8 (peptide)
peptide: RXTKSDPPIXF
HELM: PEPTIDE1{R.[Nle].T.K.S.D.P.P.I.[Nle].F.[dP].P}$PEPTIDE1,PEPTIDE1,1:R1-13:R2$$$V2.0
SMILES: CCCC[C@@H]1NC(=O)[C@H](CCCNC(=N)N)NC(=O)[C@@H]2CCCN2C(=O)[C@H]2CCCN2C(=O)[C@H](Cc2ccccc2)NC(=O)[C@H](CCCC)NC(=O)[C@H]([C@@H](C)CC)NC(=O)[C@@H]2CCCN2C(=O)[C@@H]2CCCN2C(=O)[C@H](CC(=O)O)NC(=O)[C@H](CO)NC(=O)[C@H](CCCCN)NC(=O)[C@H]([C@@H](C)O)NC1=O
In the case of B4, the IC50 in assay [1] was found to be 126 nmol. Also, the “% inhibition at 100 µM” value stood at 0.8% in assay [2]; 74.2% in assay [3]; 5.6% in assay [4]; 71.7% in the assay with Chymase, from human skin.

Consider cyclo(FCTKSDPPICS[dP][Pro(5R-Ph)]) (disulfide 2-10) [Example 48], for which the figures for the IC50 in assay [1] and in assay [2] were 83 nmol and above 100000 nmol, respectively. In addition, the figures for the “% inhibition at 100 µM” value in assay [3] and in assay [4] were 93% and 3%, respectively.

B5: Example 13 (peptide)
peptide: XCTKSDPPICR
HELM: PEPTIDE1{[O=C([C@H](Cc1ccccc1Cl)N[*:1])[*:2]].C.T.K.S.D.P.P.I.C.R.[dP].P}$PEPTIDE1,PEPTIDE1,2:R3-10:R3|PEPTIDE1,PEPTIDE1,1:R1-13:R2$$$V2.0
SMILES: CC[C@H](C)[C@@H]1NC(=O)[C@@H]2CCCN2C(=O)[C@@H]2CCCN2C(=O)[C@H](CC(=O)O)NC(=O)[C@H](CO)NC(=O)[C@H](CCCCN)NC(=O)[C@H]([C@@H](C)O)NC(=O)[C@@H]2CSSC[C@H](NC1=O)C(=O)N[C@@H](CCCNC(=N)N)C(=O)N1CCC[C@@H]1C(=O)N1CCC[C@H]1C(=O)N[C@@H](Cc1ccccc1Cl)C(=O)N2
B5 showed an IC50 in assay [1] of 100 nmol. Also, the “% inhibition at 100 µM” value in assay [2] came to 8.2%; in assay [3], 95%; with Chymase, from human skin, 19.9%.

B6: Example 73 (peptide)
peptide: FCTKSDPPICS
HELM: PEPTIDE1{F.C.T.K.S.D.P.P.I.C.S.[dI].P}$PEPTIDE1,PEPTIDE1,2:R3-10:R3|PEPTIDE1,PEPTIDE1,1:R1-13:R2$$$V2.0
SMILES: CC[C@@H](C)[C@H]1NC(=O)[C@H](CO)NC(=O)[C@@H]2CSSC[C@H](NC(=O)[C@H](Cc3ccccc3)NC(=O)[C@@H]3CCCN3C1=O)C(=O)N[C@@H]([C@@H](C)O)C(=O)N[C@@H](CCCCN)C(=O)N[C@@H](CO)C(=O)N[C@@H](CC(=O)O)C(=O)N1CCC[C@H]1C(=O)N1CCC[C@H]1C(=O)N[C@@H]([C@@H](C)CC)C(=O)N2
Regarding B6, the results for the IC50 in assay [1] and in assay [2] were 89 nmol and above 100000 nmol, respectively. The “% inhibition at 100 µM” value was found to be 94% in assay [3] and 0% in assay [4].

B7: Example 16 (peptide)
peptide: FCTKSDPPXCS
HELM: PEPTIDE1{F.C.T.K.S.D.P.P.[Cha].C.S.[dP].P}$PEPTIDE1,PEPTIDE1,2:R3-10:R3|PEPTIDE1,PEPTIDE1,1:R1-13:R2$$$V2.0
SMILES: C[C@@H](O)[C@@H]1NC(=O)[C@@H]2CSSC[C@H](NC(=O)[C@H](CC3CCCCC3)NC(=O)[C@@H]3CCCN3C(=O)[C@@H]3CCCN3C(=O)[C@H](CC(=O)O)NC(=O)[C@H](CO)NC(=O)[C@H](CCCCN)NC1=O)C(=O)N[C@@H](CO)C(=O)N1CCC[C@@H]1C(=O)N1CCC[C@H]1C(=O)N[C@@H](Cc1ccccc1)C(=O)N2
As to B7, the values for the IC50 in assay [1] and in assay [2] were 66 nmol and above 100000 nmol, respectively. The “% inhibition at 100 µM” value in assay [3] was determined as 90%; with Chymase, from human skin, 12.9%; in assay [5], 3.2%.

B8: Example 50 (peptide)
peptide: FCTKSDPPICS
HELM: PEPTIDE1{F.C.T.K.S.D.P.P.I.C.S.[dI].P}$PEPTIDE1,PEPTIDE1,2:R3-10:R3|PEPTIDE1,PEPTIDE1,1:R1-13:R2$$$V2.0
SMILES: CC[C@@H](C)[C@H]1NC(=O)[C@H](CO)NC(=O)[C@@H]2CSSC[C@H](NC(=O)[C@H](Cc3ccccc3)NC(=O)[C@@H]3CCCN3C1=O)C(=O)N[C@@H]([C@@H](C)O)C(=O)N[C@@H](CCCCN)C(=O)N[C@@H](CO)C(=O)N[C@@H](CC(=O)O)C(=O)N1CCC[C@H]1C(=O)N1CCC[C@H]1C(=O)N[C@@H]([C@@H](C)CC)C(=O)N2
Turning to B8, the results for the IC50 in assay [1] and in assay [2] were 89 nmol and above 100000 nmol, respectively. For the same molecule, the figures for the “% inhibition at 100 µM” value in assay [3] and in assay [4] were 94% and 0%, respectively.

B9: Example 11 (peptide)
peptide: XCTKSDPPICS
HELM: PEPTIDE1{[O=C([C@@H](N[*:1])C1CCCCC1)[*:2]].C.T.K.S.D.P.P.I.C.S.[dP].P}$PEPTIDE1,PEPTIDE1,2:R3-10:R3|PEPTIDE1,PEPTIDE1,1:R1-13:R2$$$V2.0
SMILES: CC[C@H](C)[C@@H]1NC(=O)[C@@H]2CCCN2C(=O)[C@@H]2CCCN2C(=O)[C@H](CC(=O)O)NC(=O)[C@H](CO)NC(=O)[C@H](CCCCN)NC(=O)[C@H]([C@@H](C)O)NC(=O)[C@@H]2CSSC[C@H](NC1=O)C(=O)N[C@@H](CO)C(=O)N1CCC[C@@H]1C(=O)N1CCC[C@H]1C(=O)N[C@@H](C1CCCCC1)C(=O)N2
B9 returned an IC50 in assay [1] of 95 nmol. In addition, the “% inhibition at 100 µM” value in assay [2] stood at 19%; in assay [3], 6.5%; in assay [4], 73.6%; with Chymase, from human skin it was 12.1%.
